Assay results from article PMC3501490, “An Investigation of Hierachical Protein Recruitment to the Inhibitory Platelet Receptor, G6B-b” (PLoS ONE, 2012).

Target: G6B-b dual phosphopeptide pY211/pY237 (Homo sapiens), O95866
Assay: SPR

Sequence of G6B-b dual phosphopeptide pY211/pY237 (Homo sapiens), O95866 (O95866 206-241): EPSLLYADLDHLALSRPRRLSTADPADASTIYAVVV

B1: SHP-2 tandem SH2, Q06124 (protein)
chain: WFHPNITGVEAENLLLTRGVDGSFLARPSKSNPGDFTLSVRRNGAVTHIKIQNTGDYYDLYGGEKFATLAELVQYYMEHHGQLKEKNGDVIELKYPLNCADPTSERWFHGHLSGKEAEKLLTEKGKHGSFLVRESQSHPGDFVLSVRTGDDKGESNDGKSKVTHVMIRCQELKYDVGGGERFDSLTDLVEHYKKNPMVETLGTVLQLKQPL
Work on B1 yielded a Kd of 0.48 nM.
